Assay [1] has as its target prefusion RSVF (preRSVF), prefusion-stabilized respiratory syncytial virus fusion protein (respiratory syncytial virus) (UniProt P03420).
In a further assay the target is T1, S0_2.126 (synthetic construct (de novo design)).
T1 chain: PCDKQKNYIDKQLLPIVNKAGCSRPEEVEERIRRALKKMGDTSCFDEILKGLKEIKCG
The assay is described as follows: SPR.

Chain of prefusion RSVF (preRSVF), prefusion-stabilized respiratory syncytial virus fusion protein (respiratory syncytial virus) (P03420 135-513): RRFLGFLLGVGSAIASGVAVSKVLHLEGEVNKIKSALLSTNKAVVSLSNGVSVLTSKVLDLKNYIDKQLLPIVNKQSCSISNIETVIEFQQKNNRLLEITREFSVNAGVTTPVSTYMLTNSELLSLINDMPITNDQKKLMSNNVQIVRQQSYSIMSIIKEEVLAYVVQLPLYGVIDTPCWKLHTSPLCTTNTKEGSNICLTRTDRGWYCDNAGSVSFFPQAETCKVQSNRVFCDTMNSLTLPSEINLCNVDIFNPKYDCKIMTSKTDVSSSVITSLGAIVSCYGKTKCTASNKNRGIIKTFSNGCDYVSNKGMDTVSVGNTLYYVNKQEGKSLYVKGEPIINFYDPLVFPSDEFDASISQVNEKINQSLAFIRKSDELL

The term Kd denotes the equilibrium constant for the complex coming apart. Low values mean a tighter complex, high ones a looser complex. Regarding D25 antibody, the Kd in assay [1] came to 0.15 nM.

B1: D25 antibody (antibody, V domains shown)
VH: QVQLVQSGAEVKKPGSSVMVSCQASGGPLRNYIINWLRQAPGQGPEWMGGIIPVLGTVHYAPKFQGRVTITADESTDTAYIHLISLRSEDTAMYYCATETALVVSTTYLPHYFDNWGQGTLVTVSS
VL: DIQMTQSPSSLSAAVGDRVTITCQASQDIVNYLNWYQQKPGKAPKLLIYVASNLETGVPSRFSGSGSGTDFSLTISSLQPEDVATYYCQQYDNLPLTFGGGTKVEIK
For the molecule B1, in the assay with S0_2.126, the Kd was around 0.05 nM.

The values are drawn from paper PMC7391827 (Science (New York, N.Y.), 2020).
